According to patent US20090148434A1 (published 2009):

B1: TAR2h10-55 (other)
VH: STEVQLLESGGGLVQPGGSLRLSCAASGFPFEWYWMGWVRQAPGKGLEWVSAISGSGDSTYYADSVKGRFTISRDNSKNTLYQQMNSLRAEDAAVYYCAKVKLGGGPNFGYRGQGTLVTVSSAAAEQKLISEEDLN
notes: expressed from pDOM5; also called TAR2h10-55 dAb
B2: TAR3h-22 (other)
VH: STEVQLLESGGGLVQPGGSLRLSCAASGFTFSKYWMSWVRQAPGKGLEWVSSIDFMGPHTYYADSVKGRFTISRDNSKNTLYLQMNSLRAEDTAVYYCAKGRTSMLPMKGKFDYWGQGTLVTVSSAAAEQKLISEEDLN
notes: anti-HSA VH dAb expressed from pDOM5
B3: TAR3h-23 (other)
VH: STEVQLLESGGGLVQPGGSLRLSCAASGFTFYDYNMSWVRQAPGKGLEWVSTITHTGGVTYYADSVKGRFTISRDNSKNTLYLQMNSLRAEDTAVYYCAKQNPSYQFDYWGQGTLVTVSSAAAEQKLISEEDLN
notes: as for B2
B4: TAR3h-26 (other)
VH: STEVQLLESGGGLVQPGGSLRLSCTASGFTFDEYNMSWVRQAPGKGLEWVSTILPHGDRTYYADSVKGRFTISRDNSKNTLYLQMNSLRAEDTAVYYCAKQDPLYRFDYWGQGTLVTVSSAAAEQKLISEEDLN
notes: as for B2

Tests used:
human p55 TNF receptor = target: T1, human p55 TNF receptor (human, UniProt P19438 30-211, limits assumed)
T1 construct: also called TNF Receptor 1; TNFR1
T1 sequence (looked up): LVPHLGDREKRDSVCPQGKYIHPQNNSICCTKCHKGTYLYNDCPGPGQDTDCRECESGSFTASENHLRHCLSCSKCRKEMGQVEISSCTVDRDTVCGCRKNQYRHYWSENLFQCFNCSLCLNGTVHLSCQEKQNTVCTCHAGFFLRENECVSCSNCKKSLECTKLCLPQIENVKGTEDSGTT

human serum albumin = target: T2, human serum albumin (human, UniProt P02768 25-609); assay: not stated; IC50/Kd, called Kd in paragraph 434
T2 construct: also called HSA

Binder	Kd (human p55 TNF receptor) [nM]	Kd (human serum albumin) [nM]
B1	10 to 15	–
B2	–	50
B3	–	800
B4	–	200
